Molecular target: Coxsackievirus and adenovirus receptor (CAR), endogenous on rat spinal cord motor neurons (rat (endogenous in spinal cord motor neurons)) (UniProt Q9R066)
UniProt Q9R066, sequence (Q9R066 20-365): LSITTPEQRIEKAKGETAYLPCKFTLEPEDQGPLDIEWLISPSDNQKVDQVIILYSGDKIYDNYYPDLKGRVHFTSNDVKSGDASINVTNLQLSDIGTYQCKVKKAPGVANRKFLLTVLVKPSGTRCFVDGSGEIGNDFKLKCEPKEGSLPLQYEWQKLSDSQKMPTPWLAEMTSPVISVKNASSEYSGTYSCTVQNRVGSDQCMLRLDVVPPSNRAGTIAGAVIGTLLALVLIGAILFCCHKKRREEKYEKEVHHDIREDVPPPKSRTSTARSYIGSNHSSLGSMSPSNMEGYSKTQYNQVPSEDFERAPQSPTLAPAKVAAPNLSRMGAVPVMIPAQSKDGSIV

CAV-2 fibre knob, unlabelled recombinant (FK) (domain or fragment)
CAV-2 virion uptake in MNs after pre-incubation with saturating concentrations of recombinant FK (blocks CAV-2 virion with CAR): 76%

From PMC2677547
